This experiment addresses T1, myc-tagged PSD95 (UniProt P31016 1-724).
T1 construct: also called PSD-95 myc; PSD-95-myc; not shown: myc tag
In words: co-immunoprecipitation from HEK 293T cells stably expressing Flag-tagged GPR10, transfected with myc-tagged PSD95. The procedure: Forty-eight hours after transfection, cells were washed once in PBS and lysed with IP buffer (1% triton X-100, 25 mM Tris, pH 7.4, 50 mM NaCl, 5 mM EDTA, 5 mM EGTA, 0.1 mM phenylmethylsulphonyl fluoride (PMSF), aprotinin, leupeptin, and bacitracin). Immunoprecipitation was performed using 2 μg anti-Flag M2 antibody (Sigma) or 1 μg anti-myc antibody (Roche) followed by 25 μl protein G-agarose (Sigma). Immunoprecipitation was carried out overnight at 4° C. Immunoprecipitated proteins were resolved on SDS-PAGE, transferred to PVDF membrane. Western blotting was performed to detect GRIP using anti-GRIP antibody (1:1000). ABP-myc, PSD-95-myc, and PICK1-myc were detected using the monoclonal anti-myc antibody (1:500, Clontech).
To determine whether GPR10 interacts specifically with AMPA receptor interacting proteins, myc-tagged ABP and myc-tagged PSD95 were transfected into cell lines expressing wild type and mutant Flag-tagged GPR10.

T1 sequence (P31016 whole entry): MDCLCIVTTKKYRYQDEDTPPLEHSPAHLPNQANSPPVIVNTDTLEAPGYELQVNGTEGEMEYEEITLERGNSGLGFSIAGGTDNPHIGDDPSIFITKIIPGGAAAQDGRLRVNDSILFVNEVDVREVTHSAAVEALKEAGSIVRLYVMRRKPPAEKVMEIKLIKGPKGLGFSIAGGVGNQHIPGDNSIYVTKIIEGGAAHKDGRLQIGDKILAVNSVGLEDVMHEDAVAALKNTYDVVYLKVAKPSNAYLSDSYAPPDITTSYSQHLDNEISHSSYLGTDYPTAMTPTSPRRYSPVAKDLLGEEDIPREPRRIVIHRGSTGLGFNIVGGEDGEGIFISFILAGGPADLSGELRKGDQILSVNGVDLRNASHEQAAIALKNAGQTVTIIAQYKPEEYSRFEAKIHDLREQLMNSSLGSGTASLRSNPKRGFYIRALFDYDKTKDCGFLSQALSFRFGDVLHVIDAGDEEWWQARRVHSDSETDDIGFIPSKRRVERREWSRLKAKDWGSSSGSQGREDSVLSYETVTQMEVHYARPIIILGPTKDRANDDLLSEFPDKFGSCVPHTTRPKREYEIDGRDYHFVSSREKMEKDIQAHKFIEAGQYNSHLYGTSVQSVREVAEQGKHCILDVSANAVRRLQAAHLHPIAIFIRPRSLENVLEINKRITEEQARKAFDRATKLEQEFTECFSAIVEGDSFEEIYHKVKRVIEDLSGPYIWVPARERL

B1: Flag-tagged GPR10 (wild type) (receptor, UniProt P49683 1-370, looked up)
chain: MASSTTRGPRVSDLFSGLPPAVTTPANQSAEASAGNGSVAGADAPAVTPFQSLQLVHQLKGLIVLLYSVVVVVGLVGNCLLVLVIARVRRLHNVTNFLIGNLALSDVLMCTACVPLTLAYAFEPRGWVFGGGLCHLVFFLQPVTVYVSVFTLTTIAVDRYVVLVHPLRRRISLRLSAYAVLAIWALSAVLALPAAVHTYHVELKPHDVRLCEEFWGSQERQRQLYAWGLLLVTYLLPLLVILLSYVRVSVKLRNRVVPGCVTQSQADWDRARRRRTFCLLVVIVVVFAVCWLPLHVFNLLRDLDPHAIDPYAFGLVQLLCHWLAMSSACYNPFIYAWLHDSFREELRKLLVAWPRKIAPHGQNMTVSVVI
notes: whole, on cells; Expressed in HEK 293T or COS7 cells; immunoprecipitated from Triton lysates with anti-Flag M2; also called Flag GPR10 WT; PrRP receptor; not shown: Flag tag
Regarding B1, the binding result is “no binding”.

For the origin of these results see US20020037533A1 (University of California, published 2002).
